Test results as given in article PMC8244865, “Recruitment of phospholipase Cγ1 to the non-structural membrane protein pK15 of Kaposi Sarcoma-associated herpesvirus promotes its Src-dependent phosphorylation” (PLoS Pathogens, 2021).

Tests used:
[1] = test system: full length PLCγ1 R586L+R694L; assay: GST-pulldown, full-length PLCγ1 double mutant; conditions: phosphorylated; binding eliminated for SA domain but not full length
Method: (§1) Fig 3 Contribution of individual PLCγ1 SH2 domains to the interaction with phosphorylated pK15. The pK15 CT fused to GST, its Y^481F mutant, or GST alone were bound to glutathione beads, phosphorylated in vitro (+) or left unphosphorylated (-), and a GST pulldown was performed 32h after transfection into HEK-293T cells of expression vectors for S-tagged full-length PLCγ1 (FL) (A) or PLCγ1 SA (B) containing the indicated mutations. (C) pK15 CT WT, its Y^481F mutant or GST were bound to glutathione beads, phosphorylated in vitro (+) or left unphosphorylated (-), and used for a GST pulldown assay 32h after transfecting HEK 293T cells with expression vectors for S-tagged individual PLCγ1 nSH2 or cSH2 domains. […]
(§2) HEK293T cells were washed once with cold PBS 30 hours after transfection, lysed in IP buffer (50 mM Tris pH7.6, 60 mM NaCl, 6.25 mM EDTA, 1% (v/v) glycerol, 0.04% (v/v) NP-40) on ice for 30 minutes, sonicated shortly and cleared by centrifugation for 10 minutes at 20.000g, 4°C. […] Beads were then washed 5 times in 500 μl IP buffer (or for purified proteins IP buffer with 200 mM NaCl), suspended in 10 μl of 5x Laemmli sample buffer (60 mM Tris pH6.8, 24% (v/v) glycerol, 2% (v/v) SDS, 5% (v/v) β-mercaptoethanol, 0.01% Bromphenol Blue) and analysed by western blot.

Src kinase = assay: in vitro phosphorylation of pK15 CT by Src; assay type: biochemical; conditions: human GST-6xHis Src or chicken 2xStrep Src
Text: We expressed and purified the pK15 cytoplasmic tail (pK15 CT) fused to GST at its N-terminal end in bacteria and phosphorylated it in vitro using a commercially obtained human GST-6xHis Src, or a recombinant chicken 2xStrep Src kinase expressed in insect cells. In parallel, the GST-pK15 CT domain carrying the Y^481F mutation, or GST protein alone, were subjected to the same procedure. […] Following in vitro phosphorylation, pK15 CT^WT and pK15 CT^Y481F were used to pull down transiently expressed (Fig 2A) or endogenous (Fig 2B) PLCγ1 from HEK 293 lysates.
The GST-fused cytoplasmic tail of pK15 (GST-pK15 CT) was in vitro phosphorylated by recombinant human GST-6xHis Src kinase (ActiveMotif, 0.4 μg/ml per kinase reaction, 10 minutes at 30°C), or a recombinant chicken 2xStrep-Src kinase (10 μg/ml per kinase reaction, 30 minutes at 25°C). GST-pK15 CT was used at 4.8 μM or 6 μM and 50 μl or 100 μl reaction volumes for AlphaLISA and 3–6 μl glutathione beads with K15 and 25 μl reaction volume for GST pulldown experiments. […]
Supplementary file ppat.1009635.s001.tif: S1 Fig Both pK15 Y^431 and Y^481 are phosphorylated by recombinant Src kinase. […] Proteins were then analysed by WB using an antibody to pTyr. […]

[2] = test system: full-length PLCγ1 R586L or R694L; assay: GST-pulldown, full-length PLCγ1 R586L or R694L; assay type: binding; conditions: phosphorylated; full-length PLCγ1, HEK 293T; versus WT
Method: as §1, §2

PLCγ1 SA R586L+R694L = assay: GST-pulldown, PLCγ1 SA double mutant; assay type: binding; conditions: phosphorylated; HEK 293T
Method: as §1, §2

[3] = test system: PLCγ1 cSH2 domain (vs nSH2 domain); assay: GST-pulldown, individual SH2 domains; assay type: binding; conditions: in vitro phosphorylated; S-tagged individual SH2 domains transfected in HEK 293
Method: as §1, §2

PLCγ1 SA = assay: GST-pulldown, PLCγ1 SA; assay type: binding
Method: Fig 2 K15 phosphorylation results in a stronger binding to PLCγ1. (A) An expression plasmid for an S-tagged full length PLCγ1 or the empty vector (EV) were transfected in HEK-293T cells. After 30h cells were lysed and a GST-pulldown assay was performed with GST-fused pK15 CT (WT), the pK15 CT Y^481F mutant (Y^481F) or GST that had been bound to glutathione beads and previously phosphorylated by GST-6xHis Src (+) or left unphosphorylated (-). Bound proteins were analysed by WB using antibodies to the S tag on PLCγ1 and pTyr. (B) Untransfected HEK-293T cells were lysed and a GST-pulldown assay with pre-phosphorylated (+) or unphosphorylated (-) GST-fused pK15 CT WT/Y^481F or GST was performed and analysed by WB as in (A). (C) An expression plasmid for an S-tagged PLCγ1 SA or the empty vector were transfected in HEK-293T cells. […]
as §2

B1: pK15 CT^WT: pK15 cytoplasmic tail fused to GST at its N-terminal end, phosphorylated in vitro by Src (protein)
chain: SQLLNEVELQEVNRDPPNVFGYASILVSGAEESREPSPQPDQSGMSILRVDGGSAFRIDTAQAATQPTDDLYEEVLFPRN
modifications: tyrosine-phosphorylated in vitro by Src; sites not stated for this construct; left off: GST, N-terminal, kept
[1]
  binding of double mutant (GST-pulldown): not to full length PLCγ1
Src kinase
  pK15 bands detected after Src phosphorylation (pTyr Western blot): a dominant (bottom) and a minor (top) pK15 band
[2]
  binding of mutants (GST-pulldown): moderately reduced binding
PLCγ1 SA R586L+R694L
  binding of double mutant (GST-pulldown): completely eliminated the binding
[3]
  preference between SH2 domains (GST-pulldown): bound preferentially to the PLCγ1 cSH2 domain compared to its nSH2 domain
PLCγ1 SA; in vitro phosphorylated by Src, transfected SA in HEK 293, Western blot
  interaction with PLCγ1 SA (GST-pulldown): bound more strongly to the SA region than the phosphorylated pK15 CT^Y481F mutant
PLCγ1 SA; without prior in vitro phosphorylation by Src kinase
  interaction with PLCγ1 SA, unphosphorylated (GST-pulldown): marginal binding to PLCγ1 SA
